Reference: publication PMC12649893 (Biosensors, 2025)

B1: AB2 antibody specific to NECL-5 (NTX1088) (antibody, V domains shown)
VH: QVQLVQSGAEVKKPGASVKVSCKATGYTFSNYWIEWVRQAPGQGLEWIGEIFPGSGRINFNEKFKGRVTFTADTSISTTYMELSRLRSDDTAVYYCARTKIYGNSFDYWGQGTLVTVSS
VL: DIQMTQSPSSLSASVGDRVTITCKASQDVGTAVVWYQQKPGKAPKLLIYWASSRHEGVPDRFSGSGSGTDFTLTISSLQPEDFADYFCQQYSRYPLTFGQGTKLEIK
B2: AB1 antibody specific to BDCA-2 (BIIB059) (antibody, V domains shown)
VH: DVQLVESGGGLVKPGGSLRLSCAASGFTFSTYTMSWVRQAPGKGLEWVATISPGDSFGYYYPDSVQGRFTISRDNAKNSLYLQMNSLRAEDTAVYYCTRDIYYNYGAWFAYWGQGTLVTVSS
VL: DIQLTQSPSSLSASVGDRVTITCKASQSVDYDGDSYMNWYQQKPGKAPKLLIYAASTLESGVPSRFSGSGSGTDFTLTISSLQPEDFATYYCQQANEDPRTFGQGTKVEIK

What was measured:
Conditions in all cases: both partners purified
[1] = target: T1, Nectin-like protein 5 (NECL-5 or CD155) extracellular fragment (UniProt P15151); assay: BLI; standard measurement of kinetics with the immobilization of antibodies on AR2G sensors (Sartorius)
T1 construct: Nectin-like protein 5 (NECL-5, CD155, poliovirus receptor), extracellular fragment, residues 28-343 of NP_001129242.2; also called poliovirus receptor; source: CHO, transient transfection, purified (Ni-NTA, SEC Superdex 75)

[2] = target: T1, Nectin-like protein 5 (NECL-5 or CD155) …; assay: BLI; biotinylated FcγRIa on SA sensors (5 μg/mL, to 1 nm), antibodies for 300 s, then antigens 10 μg/mL for 600 s; kinetic buffer pH 7.4, 30 °C; constants from the empirical model Equation (A1), k_diss fixed
[3] = target: T1, Nectin-like protein 5 (NECL-5 or CD155) …; assay: BLI; biotinylated FcγRIIIa on SA sensors (5 μg/mL, to 1 nm), antibodies for 300 s, then antigens 10 μg/mL for 300 s; kinetic buffer pH 7.4, 30 °C; constants from the empirical model Equation (A1), k_diss fixed
[4] = target: T2, Blood dendritic cell antigen 2 of macaca fascicularis (cBDCA-2) extracellular fragment (Macaca fascicularis, UniProt A0A2K5UWP4); assay: BLI; ProA sensors; antibodies loaded at 10 micrograms/mL for 300 s, antigens 10 μg/mL, association 7200 s; 30 °C, PBS, 0.1% Tween 20, 0.1% BSA, pH 7.4; constants from the empirical model Equation (A1), k_diss fixed
T2 construct: Blood dendritic cell antigen 2 (BDCA-2) of Macaca fascicularis, extracellular fragment, residues 45-213 of XP_005570080.1; source: CHO, transient transfection, purified (Ni-NTA, SEC Superdex 75)

[5] = target: T3, Triggering receptor expressed on myeloid cells 2 (TREM-2) extracellular fragment (UniProt Q9NZC2-1); assay: as above
T3 construct: Triggering receptor expressed on myeloid cells 2 (TREM-2), extracellular fragment, residues 19-174 of NP_061838.1; source: CHO, transient transfection, purified (Ni-NTA, SEC Superdex 75)

[6] = target: T1, Nectin-like protein 5 (NECL-5 or CD155) …; assay: as above
[7] = target: T1, Nectin-like protein 5 (NECL-5 or CD155) …; assay: BLI; biotinylated FcRn on SA sensors (5 μg/mL, to 1 nm), antibodies 10 μg/mL for 180 s, then antigens 20 μg/mL for 300 s; kinetic buffer pH 6.0, 30 °C; constants from the empirical model Equation (A1), k_diss fixed
[8] = target: T2, Blood dendritic cell antigen 2 of …; assay: BLI; standard measurement of kinetics with the immobilization of antibodies on AR2G sensors (Sartorius)
[9] = target: T2, Blood dendritic cell antigen 2 of …; assay: BLI; biotinylated FcγRIa on SA sensors (5 μg/mL, to 1 nm), antibodies for 300 s, then antigens 10 μg/mL for 600 s; kinetic buffer pH 7.4, 30 °C; constants from the empirical model Equation (A1), k_diss fixed
[10] = target: T2, Blood dendritic cell antigen 2 of …; assay: BLI; biotinylated FcγRIIIa on SA sensors (5 μg/mL, to 1 nm), antibodies for 300 s, then antigens 10 μg/mL for 300 s; kinetic buffer pH 7.4, 30 °C; constants from the empirical model Equation (A1), k_diss fixed
[11] = target: T1, Nectin-like protein 5 (NECL-5 or CD155) …; assay: BLI; ProA sensors; antibodies loaded at 10 micrograms/mL for 300 s, antigens 10 μg/mL, association 7200 s; 30 °C, PBS, 0.1% Tween 20, 0.1% BSA, pH 7.4; constants from the empirical model Equation (A1), k_diss fixed; remark: listed apart in the source
[12] = target: T2, Blood dendritic cell antigen 2 of …; assay: as above; remark: listed apart in the source
[13] = target: T2, Blood dendritic cell antigen 2 of …; assay: BLI; biotinylated FcRn on SA sensors (5 μg/mL, to 1 nm), antibodies 10 μg/mL for 180 s, then antigens 20 μg/mL for 300 s; kinetic buffer pH 6.0, 30 °C; constants from the empirical model Equation (A1), k_diss fixed

T1 sequence (P15151 28-343): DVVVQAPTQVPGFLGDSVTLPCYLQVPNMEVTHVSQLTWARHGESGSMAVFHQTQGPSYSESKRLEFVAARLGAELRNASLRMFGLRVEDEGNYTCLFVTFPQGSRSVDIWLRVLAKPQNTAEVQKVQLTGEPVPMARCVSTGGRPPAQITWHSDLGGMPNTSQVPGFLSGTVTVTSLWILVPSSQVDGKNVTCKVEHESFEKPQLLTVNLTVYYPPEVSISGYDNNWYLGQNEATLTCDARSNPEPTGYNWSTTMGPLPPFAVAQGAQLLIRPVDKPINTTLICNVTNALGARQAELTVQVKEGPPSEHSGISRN
T3 sequence (Q9NZC2 19-174): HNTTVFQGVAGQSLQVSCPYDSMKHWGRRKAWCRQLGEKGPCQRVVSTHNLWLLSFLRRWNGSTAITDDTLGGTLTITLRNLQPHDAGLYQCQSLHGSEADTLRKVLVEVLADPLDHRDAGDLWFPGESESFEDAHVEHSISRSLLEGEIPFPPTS

Binder | koff [1] [s⁻¹] | kon [1] [M⁻¹ s⁻¹] | kon [2] [M⁻¹ s⁻¹] | kon [3] [M⁻¹ s⁻¹] | binding result [4] | binding result [5] | kon [6] [M⁻¹ s⁻¹] | kon [7] [M⁻¹ s⁻¹] | koff [8] [s⁻¹] | kon [8] [M⁻¹ s⁻¹] | kon [9] [M⁻¹ s⁻¹] | kon [10] [M⁻¹ s⁻¹] | binding result [11] | kon [12] [M⁻¹ s⁻¹] | kon [13] [M⁻¹ s⁻¹]
B1 | 0.00105 | 179000 | 99000 | 39500 | no binding (tested: 10 μg/mL) | no binding (tested: 10 μg/mL) | 52000 | 20000 | – | – | – | – | – | – | –
B2 | – | – | – | – | – | no binding (tested: 10 μg/mL) | – | – | 3.72e-05 | 134000 | 265000 | 470000 | no binding (tested: 10 μg/mL) | 12000 | 180000
